What all share (experiment): cell-based or functional assay
In assay [1] the target is HIV-1 Env of isolate JR-CSF (pseudovirus) (HIV-1) (UniProt P20871).
For assay [2], the target named is HIV-1 Env of isolate 93IN905 (pseudovirus) (HIV-1).
Assay [3] deals with HIV-1 Env of isolate MGRM-C-026 (pseudovirus) (HIV-1).
Assay [4] addresses HIV-1 Env of isolate 92BR020 (pseudovirus) (HIV-1).
Assay [5] deals with HIV-1 Env of isolate 94UG103 (pseudovirus) (HIV-1).
Assay [6] concerns the target HIV-1 JR-CSF Env F468A (HIV-1 isolate JR-CSF) (UniProt P20871).
Assay [7] has as its target HIV-1 Env of isolate MGRM-A-014 (pseudovirus) (HIV-1).
The target in assay [8] is HIV-1 Env of isolate 93UG077 (pseudovirus) (HIV-1).
Assay [9] deals with HIV-1 Env of isolate MGRM-AE-003 (pseudovirus) (HIV-1).
In assay [10] the target is HIV-1 Env of isolate MGRM-A-011 (pseudovirus) (HIV-1).
The target in assay [11] is HIV-1 Env of isolate MGRM-A-013 (pseudovirus) (HIV-1).
In assay [12] the target is HIV-1 Env of isolate MGRM-A-006 (pseudovirus) (HIV-1).
Assay [13] has as its target HIV-1 Env of isolate MGRM-A-002 (pseudovirus) (HIV-1).
Assay [14] concerns the target HIV-1 Env of isolate 92TH021 (pseudovirus) (HIV-1).
For assay [15], the target named is HIV-1 Env of isolate 92WR020 (pseudovirus) (HIV-1).
In assay [16] the target is HIV-1 Env of isolate VLGCA1 (pseudovirus) (HIV-1).
Assay [17] concerns the target HIV-1 Env of isolate MGRM-A-008 (pseudovirus) (HIV-1).
In assay [18] the target is HIV-1 Env of isolate 92WR009 (pseudovirus) (HIV-1).
Assay [19] addresses HIV-1 Env of isolate 92RW008 (pseudovirus) (HIV-1).
For assay [20], the target named is HIV-1 Env of isolate 92WR026 (pseudovirus) (HIV-1).
For assay [21], the target named is HIV-1 Env of isolate MGRM-A-005 (pseudovirus) (HIV-1).
Assay [22] deals with HIV-1 Env of isolate 94KE105 (pseudovirus) (HIV-1).
Assay [23] deals with HIV-1 Env of isolate MGRM-A-004 (pseudovirus) (HIV-1).
For assay [24], the target named is HIV-1 Env of isolate MGRM-A-007 (pseudovirus) (HIV-1).
Assay [25] has as its target HIV-1 Env of isolate 92UG037 (pseudovirus) (HIV-1).
The target of assay [26] is HIV-1 Env of isolate MGRM-AE-001 (pseudovirus) (HIV-1).
Assay [27] has as its target HIV-1 Env of isolate 92UG031 (pseudovirus) (HIV-1).
Assay [28] has as its target HIV-1 Env of isolate 92WR024 (pseudovirus) (HIV-1).
Assay [29] addresses HIV-1 Env of isolate MGRM-A-010 (pseudovirus) (HIV-1).
For assay [30], the target named is HIV-1 Env of isolate MGRM-A-003 (pseudovirus) (HIV-1).
In assay [31] the target is HIV-1 Env of isolate MGRM-A-009 (pseudovirus) (HIV-1).
Assay [32] concerns the target HIV-1 Env of isolate 93WR029 (pseudovirus) (HIV-1).
For assay [33], the target named is HIV-1 Env of isolate MGRM-A-001 (pseudovirus) (HIV-1).
Assay [34] addresses HIV-1 Env of isolate MGRM-AE-002 (pseudovirus) (HIV-1).
The target of assay [35] is HIV-1 Env of isolate CMU02 (pseudovirus) (HIV-1).
Assay [36] concerns the target HIV-1 Env of isolate 92WR021 (pseudovirus) (HIV-1).
Assay [37] deals with HIV-1 Env of isolate MGRM-A-012 (pseudovirus) (HIV-1).
For assay [38], the target named is HIV-1 JR-CSF Env E466A (HIV-1 isolate JR-CSF) (UniProt P20871).

B1: 5344_E16 (PGT-135) (antibody, V domains shown)
VH: QLQMQESGPGLVKPSETLSLSCTVSGDSIRGGEWGDKDYHWGWVRHSAGKGLEWIGSIHWRGTTHYKESLRRRVSMSIDTSRNWFSLRLASVTAADTAVYFCARHRHHDVFMLVPIAGWFDVWGPGVQVTVSS
VL: EIVMTQSPDTLSVSPGETVTLSCRASQNINKNLAWYQYKPGQSPRLVIFETYSKIAAFPARFVASGSGTEFTLTINNMQSEDVAVYYCQQYEEWPRTFGQGTKVDIK
Turning to B1, the results for the Primary Neutralization Index (B cell culture supernatant) in assay [1], in assay [2] and in assay [3] were 1.5, 2.3 and 3.6, respectively.

B2: 4869_K15 (PGT-133) (antibody, V domains shown)
VH: QVHLQESGPGLVTPSETLSLTCTVSNGSVSGRFWSWIRQSPGRGLEWIGYFSDTDRSEYNPSLRSRLTLSVDRSKNQLSLRLKSVTAADSATYYCARAQQGKRIYGIVSFGEFFYYYYMDAWGKGTPVTVSS
VL: SLNPLSLAPGATAKIPCGERSRGSRAVQWYQQKPGQAPTLIIYNNQDRPAGVSERFSGNPDVAIGVTATLTISRVEVGDEADYYCHYWDSRSPISWIFGGGTQLTVL
Take B2: the Primary Neutralization Index (B cell culture supernatant) turned out to be 3.9 in [4], 2.1 in assay [1], 1.5 in assay [5] and 104 in assay [3].

B3: PGT-130 (antibody, V domains shown)
VH: QVQLQESGPGLVKPAETLSLTCSVSGESINTGHYYWGWVRQVPGKGLEWIGHIHYTTAVLHNPSLKSRLTIKIYTLRNQITLRLSNVTAADTAVYHCVRSGGDILYYYEWQKPHWFSPWGPGIHVTVSS
VL: QSALTQPPSASGSLGQSVTISCNGTSSDIGGWNFVSWYQQFPGRAPRLIIFEVNKRPSGVPGRFSGSKSGNSASLTVSGLQSDDEGQYFCSSLFGRWDVVFGGGTKLTVL
Molecule B3 yielded a Fold IC50 increase relative to wild-type in assay [6] of 0.4 fold.

B4: 5366_P21 (PGT-136) (antibody, V domains shown)
VH: QLQLQESGPGLVKPSETLSLTCTVSGGSMRGTDWGENDFHYGWIRQSSAKGLEWIGSIHWRGRTTHYKTSFRSRATLSIDTSNNRFSLTFSFVTAADTAVYYCARHKYHDIFRVVPVAGWFDPWGQGLLVTVSS
VL: EIVMTQSPPTLSVSPGETATLSCRASQNVKNNLAWYQLKPGQAPRLLIFDASSRAGGIPDRFSGSGYGTDFTLTVNSVQSEDFGDYFCQQYEEWPRTFGQGTKVDIK
As for B4, the Primary Neutralization Index (B cell culture supernatant) in [1] is 1.1; in [2], 5.5; in [3], 6.2.

B5: PGT-127 (5145_B14) (antibody, V domains shown)
VH: QPQLQESGPGLVEASETLSLTCTVSGDSTGRCNYFWGWVRQPPGKGLEWIGSLSHCRSYYNTDWTYHNPSLKSRLTISLDTPKNQVFLRLTSVTAADTATYYCARFGGEVLVYRDWPKPAWVDLWGRGTLVVTVS
VL: QSALTQPPSASGSPGQSITISCTGTSNNFVSWYQQYPGKAPKLVIYEVNKRPSGVPDRFSGSKSGSTASLTVSGLQADDEGVYYCSSLVGNWDVIFGGGTKLTVL
In the case of B5, the IC50 (µg/mL), pseudovirus neutralization in assay [7] is 0.24 µg/mL; in assay [8] it was 0.055 µg/mL; in assay [9], over 50 µg/mL; in assay [10], over 50 µg/mL; in assay [11] it was 0.029 µg/mL; in assay [12] it was over 50 µg/mL. Besides, the IC50 (µg/mL), pseudovirus neutralization in [13] was 9.42 µg/mL; in assay [14] it was over 50 µg/mL; in assay [15], 0.01 µg/mL; in assay [16] it was over 50 µg/mL; in assay [17] it was over 50 µg/mL; in assay [18], over 50 µg/mL. The IC50 (µg/mL), pseudovirus neutralization in assay [19] is 0.012 µg/mL; in [20], 0.024 µg/mL; in assay [21], over 50 µg/mL; in [22], 0.023 µg/mL; in [23] it was over 50 µg/mL; in [24], over 50 µg/mL. The IC50 (µg/mL), pseudovirus neutralization in assay [25] was 0.014 µg/mL; in assay [26] it was over 50 µg/mL; in assay [27], over 50 µg/mL; in [28], over 50 µg/mL; in assay [29] it was 0.017 µg/mL; in assay [30] it was over 50 µg/mL. Further, the IC50 (µg/mL), pseudovirus neutralization in [31] was 0.013 µg/mL; in [5], 0.017 µg/mL; in assay [32], over 50 µg/mL; in assay [33], over 50 µg/mL; in [34], over 50 µg/mL; in [35] it was over 50 µg/mL. Further, the values for the IC50 (µg/mL), pseudovirus neutralization in assay [36] and in [37] were 0.011 µg/mL and 0.105 µg/mL, respectively.

B6: PGT-126 (antibody, V domains shown)
VH: QPQLQESGPGLVEASETLSLTCTVSGDSTAACDYFWGWVRQPPGKGLEWIGGLSHCAGYYNTGWTYHNPSLKSRLTISLDTPKNQVFLKLNSVTAADTAIYYCARFDGEVLVYHDWPKPAWVDLWGRGTLVTVSS
VL: QSALTQPPSASGSPGQSISISCTGTSNRFVSWYQQHPGKAPKLVIYGVNKRPSGVPDRFSGSKSGNTASLTVSGLQTDDEAVYYCSSLVGNWDVIFGGGTKLTVL
For B6, the Fold IC50 increase relative to wild-type in [38] was 1.4 fold.

The values above are taken from patent US20250320281A1.
